Test results reported in publication PMC12489471, “A multi-dentate, cooperative interaction between endo- and exo-ribonucleases within the bacterial RNA degradosome” (Nucleic Acids Research, 2025).
“Also recorded” adds a separate entry of the source.

How the values were obtained:
[1] = target: T1, PNPase carrying a C-terminal Hisx6 tag (E. coli polynucleotide phosphorylase) (E. coli, UniProt P05055 1-711); assay: SPR; PNPase with C-terminal His6 tag immobilised on Series S Sensor Chip NTA (5 RU); Biacore T200, 25°C; 20 mM HEPES pH 7.2, 150 mM NaCl, 5 mM MgCl2, 0.5 mM TCEP, 0.05% Tween 20; six peptide concentrations up to 9000 nM (up to 5000 nM for RNase E 985–1061); contact 60 s, dissociation 120 s; details: both partners purified
T1 construct: polynucleotide phosphorylase (PNPase), E. coli; Immobilised through the His tag on an NTA chip for SPR; also called PNPase C-His; PNPase with a 6xHisTag at the CTD; source: E. coli Evo21(DE3), purified (Ni-NTA, butyl-Sepharose HIC, Q, Superdex S200); not shown: His6, C-terminal, kept
T1 sequence (looked up): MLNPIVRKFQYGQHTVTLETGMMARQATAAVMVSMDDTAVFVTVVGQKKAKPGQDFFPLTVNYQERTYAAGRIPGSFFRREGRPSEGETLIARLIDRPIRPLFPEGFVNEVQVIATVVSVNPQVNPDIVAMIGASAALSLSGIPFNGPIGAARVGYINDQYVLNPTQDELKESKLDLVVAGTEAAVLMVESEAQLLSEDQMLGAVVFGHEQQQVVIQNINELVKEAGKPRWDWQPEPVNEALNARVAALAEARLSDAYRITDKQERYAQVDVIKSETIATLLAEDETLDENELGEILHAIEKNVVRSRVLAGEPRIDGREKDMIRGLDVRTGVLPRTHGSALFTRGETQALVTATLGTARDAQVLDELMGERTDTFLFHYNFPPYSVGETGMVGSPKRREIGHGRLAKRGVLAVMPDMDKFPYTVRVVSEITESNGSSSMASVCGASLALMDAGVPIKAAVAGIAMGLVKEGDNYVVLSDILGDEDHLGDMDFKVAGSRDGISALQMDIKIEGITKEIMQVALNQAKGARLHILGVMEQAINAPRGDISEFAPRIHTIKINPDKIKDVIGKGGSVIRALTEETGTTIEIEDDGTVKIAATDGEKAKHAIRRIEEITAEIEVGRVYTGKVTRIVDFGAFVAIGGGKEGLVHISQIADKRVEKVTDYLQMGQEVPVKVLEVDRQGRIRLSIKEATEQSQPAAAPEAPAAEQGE

PNPase = target: T2, PNPase (Escherichia coli, UniProt P05055); format: binding, E. coli
T2 construct: made in house; host or cells: E. coli Evo21(DE3)
T2 sequence (P05055 whole entry, looked up): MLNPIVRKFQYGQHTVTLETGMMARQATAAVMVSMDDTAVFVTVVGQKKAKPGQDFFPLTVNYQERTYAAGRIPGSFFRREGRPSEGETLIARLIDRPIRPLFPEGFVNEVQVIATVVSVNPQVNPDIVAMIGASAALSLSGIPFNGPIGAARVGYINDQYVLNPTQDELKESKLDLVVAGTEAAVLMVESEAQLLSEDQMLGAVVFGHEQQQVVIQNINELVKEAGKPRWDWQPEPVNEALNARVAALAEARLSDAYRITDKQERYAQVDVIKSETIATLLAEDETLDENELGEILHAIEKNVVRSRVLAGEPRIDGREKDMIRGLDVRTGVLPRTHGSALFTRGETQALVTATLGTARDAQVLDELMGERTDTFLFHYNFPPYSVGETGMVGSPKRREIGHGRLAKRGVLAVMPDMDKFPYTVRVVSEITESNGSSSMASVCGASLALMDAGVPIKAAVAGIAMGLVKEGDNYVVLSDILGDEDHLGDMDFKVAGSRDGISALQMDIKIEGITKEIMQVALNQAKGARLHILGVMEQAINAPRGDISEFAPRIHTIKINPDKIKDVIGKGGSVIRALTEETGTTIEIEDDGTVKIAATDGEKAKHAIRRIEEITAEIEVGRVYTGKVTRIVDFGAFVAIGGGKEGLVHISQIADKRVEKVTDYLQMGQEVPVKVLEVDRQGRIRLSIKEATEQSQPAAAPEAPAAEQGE
Source text: Briefly, at the N-terminal of the construct, there is an Hisx6 affinity tag that will be used for affinity purification. Following the Hisx6 tag there is an maltose-binding protein (MBP) tag with a TEV cleavage site to maintain solubility of the peptides. Following the MBP tag the gene encoding the peptide is inserted, and is then followed by intein, a self-cleavable tag, followed by a choline-binding domain, which can be used for an extra step of affinity purification. […] After expression, cells were harvested, resuspended in Lysis Buffer 2 (20 mM Tris–HCl, pH 8.0, 80 mM KCl, 300 mM NaCl, 20 mM Imidazole, 0.5 mM TCEP), and lysed with a cell disruptor (Emulsiflex, Avestin). […] After subsequent rounds of washing with Ni Equilibration Buffer supplemented with, respectively, 0.1% Triton-X, 1 M NaCl, and a final wash in Ni Equilibration Buffer, samples were eluted with Ni Elution Buffer (20 mM Tris–HCl, pH 8.0, 300 mM NaCl, 300 mM imidazole, 0.5 mM TCEP). Enriched fractions were then supplemented with 100 mM β-mercaptoethanol to catalyse intein self-cleavage overnight at room temperature. Treated samples were filtered and loaded on an amylose gravity flow column, equilibrated with Amy Equilibration Buffer (20 mM Tris–HCl, pH 8.0, 20 mM NaCl, 20 mM imidazole, 2 mM β-mercaptoethanol) and after washing, His-tagged TEV protease was applied to the resin and incubated at 4°C for 2 h.
PNPase carrying a C-terminal Hisx6 tag was expressed from pExp-cis-Ec_PNP-CHis vector in E. coli Evo21(DE3) cells, induced with 0.4 mM IPTG, at 18°C overnight. After expression, cells were harvested and resuspended in Lysis Buffer 2 (20 mM Tris–HCl, pH 8.0, 80 mM KCl, 300 mM NaCl, 20 mM imidazole, 0.5 mM TCEP), and lysed with a cell disruptor (Emulsiflex, Avestin). […] After subsequent rounds of washing with equilibration buffer supplemented with 0.1% Triton-X, or 1 M NaCl, the sample was eluted with Ni PNPCHis Elution Buffer (20 mM NaH2PO4, pH 8.0, 300 mM NaCl, 300 mM KCl, 5 mM MgCl2, 300 mM imidazole, pH 7.5, 10 mM β-mercaptoethanol). […] Fractions containing PNPase were run through a HiPrep™ 26/10 Desalting Column (GE Healthcare) and buffer exchanged to Q PNPCHis A (20 mM NaH2PO4, pH 8.0, 30 mM NaCl, 10% glycerol, 0.5 mM TCEP).
Interaction measurements were made using a Biacore T200 instrument (GE) at 25°C. PNPase with a 6xHisTag at the CTD was immobilized on a Series S Sensor Chip NTA (Cytiva) to provide a signal of 5 response units (RU). […] For the SPR analysis of the point mutants, binding to PNPase was measured at four different concentrations (0, 12.5, 25, and 50 nM). All concentrations were run in duplicates. The contact time was 60 s, while the dissociation time was 120 s, at a […] flow rate. […] The chip surface was regenerated with 350 mM EDTA in water, following manufacturer's instructions. Data were processed using the manufacturer’s BIAevaluation software.

E. coli PNPase = target: T3, E. coli PNPase (E. coli, UniProt P05055 1-711); assay: SEC-MALS; Superdex 200 10/300 Increase, 100 µl at ~1 mg/ml, 25°C; buffer A (50 mM Tris pH 7.5, 100 mM NaCl, 100 mM KCl, 0.01% w/v b-DDM, 1 mM TCEP) or B (A without b-DDM) as Table S2 tells for each sample; the 1:1 ratio is one RNase E segment to one PNPase trimer (expected mass = trimer plus one segment); details: both partners purified
T3 construct: polynucleotide phosphorylase (PNPase), E. coli; also called polynucleotide phosphorylase; full-length PNPase; source: E. coli BL21(DE3), purified (ammonium sulfate, Q, butyl-Sepharose, SEC)
T3 sequence (looked up): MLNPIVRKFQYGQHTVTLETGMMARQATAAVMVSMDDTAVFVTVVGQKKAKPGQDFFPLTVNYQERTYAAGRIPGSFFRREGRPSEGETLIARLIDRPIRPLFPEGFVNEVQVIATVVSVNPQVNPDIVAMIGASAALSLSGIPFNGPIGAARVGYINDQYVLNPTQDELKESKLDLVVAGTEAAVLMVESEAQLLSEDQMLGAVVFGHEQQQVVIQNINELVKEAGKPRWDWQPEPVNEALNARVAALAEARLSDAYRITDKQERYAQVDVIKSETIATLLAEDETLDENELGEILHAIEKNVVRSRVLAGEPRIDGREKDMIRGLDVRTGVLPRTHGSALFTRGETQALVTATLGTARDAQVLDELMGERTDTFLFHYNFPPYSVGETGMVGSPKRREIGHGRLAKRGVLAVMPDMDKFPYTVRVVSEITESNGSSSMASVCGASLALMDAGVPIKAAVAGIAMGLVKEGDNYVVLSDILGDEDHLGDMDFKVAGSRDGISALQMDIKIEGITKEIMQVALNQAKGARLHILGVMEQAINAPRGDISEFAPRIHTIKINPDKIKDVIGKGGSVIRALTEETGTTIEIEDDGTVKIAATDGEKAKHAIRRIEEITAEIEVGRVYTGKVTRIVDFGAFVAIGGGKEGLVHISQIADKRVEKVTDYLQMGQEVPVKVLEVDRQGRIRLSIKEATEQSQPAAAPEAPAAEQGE

[2] = SPR, mutant vs wildtype RNase E 960–1061

B1: RNase E 1039-1061 (peptide, UniProt P21513 1039-1061, looked up)
chain: GAAGGHTATHHASAAPARPQPVE
notes: source: E. coli Evo21(DE3), pMxe vector, purified (Ni-NTA, amylose, TEV, Q, Superdex 75); not shown: His6, N-terminal, cleaved; MBP, N-terminal, cleaved; intein, C-terminal, cleaved
Kd [1]: 5.92 µM
koff [1]: 0.833 s⁻¹
kon [1]: 140000 M⁻¹ s⁻¹

B2: RNase E 960–1039: RNase E peptide carrying the plausible secondary binding motif β2 (peptide)
chain: VVETAEVVVAEPEVVAQPAAPVVAEVAAEVETVAAVEPEVTVEHNHATAPMTRAPAPEYVPEAPRHSDWQRPTFAFEGKG
modifications: left off: His6, N-terminal, cleaved | MBP, N-terminal, cleaved | intein, C-terminal, cleaved | choline-binding domain, C-terminal, cleaved
binding to PNPase (detected or not) (PNPase; pH 7.2): does not interact with PNPase; also recorded: no binding was detected

B3: RNase E 960-1061 (in the SEC-MALLS sample with PNPase) (domain or fragment, E. coli, UniProt P21513 960-1061, looked up)
chain: VVETAEVVVAEPEVVAQPAAPVVAEVAAEVETVAAVEPEVTVEHNHATAPMTRAPAPEYVPEAPRHSDWQRPTFAFEGKGAAGGHTATHHASAAPARPQPVE
notes: The expected mass of the complex fits one untagged segment of 10,585 Da on a PNPase trimer
stoichiometry N (E. coli PNPase): 1

B4: RNase E 960 – 1061 R1012AR10546A: RNase E peptide with mutation of both Arg1012 and Arg1056 to alanine (peptide)
chain: VVETAEVVVAEPEVVAQPAAPVVAEVAAEVETVAAVEPEVTVEHNHATAPMTAAPAPEYVPEAPRHSDWQRPTFAFEGKGAAGGHTATHHASAAPAAPQPVE
modifications: left off: His6, N-terminal, cleaved | MBP, N-terminal, cleaved | intein, C-terminal, cleaved | choline-binding domain, C-terminal, cleaved
notes: RNase E peptide with mutation of both Arg1012 and Arg1056 to alanine
Kd (dissociation rate constant, point mutants and wildtype) (PNPase; SPR, 25°C, immobilized PNPase C-His, HEPES pH 7.2, 0, 12.5, 25 and 50 nM (point mutants), contact 120 s, dissociation 120 s, duplicates): 0.12 s⁻¹
KD range in words (double mutant) (PNPase; SPR, 25°C, immobilized PNPase C-His, contact 120 s): low micromolar range
association rate compared to R1056A, in words (PNPase; SPR, double mutant vs slowest-binding single mutant (R1056A)): ten-fold slower
association rate compared to the wildtype, in words (PNPase; [2]): about two orders of magnitude slower
dissociation rate (off-rate) compared to the wildtype, in words (PNPase; [2]): faster off-rate
effect on KD / binding compared to the wildtype, in words (PNPase; SPR, mutant vs wildtype RNase E 960–1061, listed as R1012AR1056A): significant decrease in binding; also recorded: significantly affected the binding to PNPase
